Experimental data as given in patent CN117820471A (VAZYME MEDICAL CO LTD; HUNAN NOVAZYME MEDICAL TECH CO LTD, dated 2024).

Columns and labels:
[1] = target: T1, GFAP-His重组蛋白 (Homo sapiens (Human), UniProt P14136 1-432); assay: chemiluminescence sandwich assay on GFAP-His (Rabbit anti-GFAP mAb on magnetic beads, test antibody labelled with acridinium ester)
T1 construct: Recombinant GFAP expressed in 293F cells; also called GFAP-His蛋白; Glial fibrillary acidic protein

[2] = target: T1, GFAP-His重组蛋白; assay: fixed capture antibody in the sandwich ELISA that detects GFAP-His

T1 sequence (P14136 other isoform, or with tags, fused parts or gaps limits assumed): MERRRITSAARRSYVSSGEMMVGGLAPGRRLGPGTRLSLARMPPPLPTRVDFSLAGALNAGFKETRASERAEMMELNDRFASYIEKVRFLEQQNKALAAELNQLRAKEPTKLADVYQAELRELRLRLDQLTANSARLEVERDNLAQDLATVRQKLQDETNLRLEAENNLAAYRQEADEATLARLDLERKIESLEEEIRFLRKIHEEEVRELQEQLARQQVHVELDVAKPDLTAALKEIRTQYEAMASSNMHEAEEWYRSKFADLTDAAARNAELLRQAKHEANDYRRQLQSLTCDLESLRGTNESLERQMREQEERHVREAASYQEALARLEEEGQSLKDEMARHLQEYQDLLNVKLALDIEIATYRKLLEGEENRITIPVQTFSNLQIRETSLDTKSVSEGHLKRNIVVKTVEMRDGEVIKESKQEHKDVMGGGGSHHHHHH

| binding result [1] | binding result [2] | Binder |
| --- | --- | --- |
| binds | – | Anti-GFAP-rRmab-1 (antibody, V domains shown, the rabbit constant regions are not; It was labelled with acridinium ester in the chemiluminescence sandwich assay; also called GFAP特异性抗体; 优选抗体) VH: QSLEESGGRLVTPGTPLTLTCTSSGFSLSSYYIQWVRQAPGKGLEWIGIIYASGSTYYASWAKGRFTISKTSATVDLKITSPTQEDTATYFCARNDYDSNLIMSIWGPGTLVTVSS VL: AYDMTQTPASMEVAVGGTVTINCQASQNIGSSLAWYQQKPGQRPKLLIYRASTLASGVPSRFSGSGSGTEFTLTISGLQCDDAATYYCQQHFSIGAVQNVFGGGTEVVVR |
| – | binds | Rabbit anti-GFAP mAb (antibody, V domains shown, Rabbit monoclonal antibody developed earlier, used as the fixed capture antibody (coated on the plate or on magnetic beads) in the sandwich assays; also called 包被抗体; 与之配对的抗体) VH: QSLEESGGRLVTPGGSLTLTCTVSGIDLTTYTMTWVRQAPGKGLEWIGIISGSGTTYYASWAKGRFTISKTSTTVDLKITSPTTEDTATYFCARDLYGSSDIYNIWGPGTLVTVST VL: DIVMTQTPASVSAAVGGTVTINCQASESIRNYLSWYQQKPGQPPKLLIFDASTLASGVSSRFKGSGSGTEFTLTISDLECADAATYYCQTYYGVSGFGNAFGGGTEVVVK |
